# According to the supplement of paper PMC9170038:
# Test system: MS2 coat protein
# Assay: apparent KD of MS2 coat protein; designed switch direction (-1 OFF switch, 1 ON switch): -1; higher = weaker reporter binding
# Procedure, shortened: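 The reported apparent KD is a per-design median over clusters, from curve fits of normalised cluster fluorescence. Protein titrations used SNAP-549-labelled MS2 coat protein, doubled from 0.7 or 1.5 nM to 3 µM, in Tris-HCl pH 7.5 buffer with KCl, MgCl2, BSA, DTT, tRNA and Tween-20, with no input, 200 uM small-molecule ligand, or an oligonucleotide input. The RNA switches were transcribed on Illumina chips by stalled E. coli RNA polymerase.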
# [1] = Eterna round: R95, input ligand: microRNA oligo, concentration not stated
# [2] = input ligand: microRNA oligo, concentration not stated
Sequence,"apparent KD of MS2 coat protein (Eterna round: R95, input ligand: FMN 200 uM)",apparent KD of MS2 coat protein [1],"apparent KD of MS2 coat protein (Eterna round: R95, input ligand: none)",apparent KD of MS2 coat protein (input ligand: FMN 200 uM),apparent KD of MS2 coat protein (input ligand: none),apparent KD of MS2 coat protein [2]
GUAUGUUAUGAGGAUAUCGGUGAACAUACACAUCGAGAAGGCAUGACAUGAGGAUCACCCAUGUCAAGGAUGUA [Exclusion 6 - B - 18:b] (puzzle: Exclusion 6),25.5 nM,15.3 nM,20.8 nM,–,–,–
"GUCACAUGGGUGUAGAAUCACAUGAGGAUCACCCAUGUGACUAACAAGCUUUUUGCUCGUCUUAUGUCUAUGUGAAA [Stov1/17-A1] (Eterna round: R97, puzzle: Sensor, turn-off variant 1)",–,–,–,47.4 nM,40.5 nM,–
"GUCAGACGAGGAUAUAGAUUUAGAUACAUGAGGAUCACCCAUGUAUAGAUGUAUUUAGAUUUAGAAGGCGUCUGAC [E5/13-A3] (Eterna round: R97, puzzle: Exclusion 5)",–,–,–,231 nM,201 nM,–
"GUCAGCUCGUCAGGAUAUAUAUACAUGAGGAUCACCCAUGUAAGAUCAGGCUUCGGCCAAUGUAUAUAGAAGGGACGAGCUGAC [ENG2/11-B1] (Eterna round: R96, puzzle: Exclusion NG 2)",–,–,–,500 nM,716 nM,691 nM
"GUCAGCUCGUGAGGAUAUACAUCACUGCUUCGGCAGUGUAUUAAGAUCACAUGAGGAUCACCCAUGUAGAAGGUACGAGCUGAC [ENG2/2-C1] (Eterna round: R96, puzzle: Exclusion NG 2)",–,–,–,180 nM,22.1 nM,21.5 nM
"GUCAGCUCGUGAGGAUAUACAUGAGGAUCACCCAUGUGGUCAAUAGCAGCUUCGGCUGCAUACAUGUAGAAGGCACGAGCUGAC [ENG2/7-A1] (Eterna round: R96, puzzle: Exclusion NG 2)",–,–,–,59.7 nM,30.7 nM,9.59 nM
"GUCAGCUCGUGAGGAUAUACAUGAUAGAUCGAUUAAUUAAUUAAUUUAACAUGAGGAUCACCCAUGUAGAAGGUACGAGCUGAU [ENG2/1-C2] (Eterna round: R96, puzzle: Exclusion NG 2)",–,–,–,–,–,40.1 nM
"GUCAGCUCGUGAGGAUAUACAUGCGUGCUUCGGCACGAAUUUAAGAUCACAUGAGGAUCACCCAUGUAGAAGGCACGAGCUGAU [ENG2/3-A2] (Eterna round: R96, puzzle: Exclusion NG 2)",–,–,–,366 nM,797 nM,896 nM
"GUCAGCUCGUGAGGAUAUAUAUACAUGAGGAUCACCCAUGUAAGAUCAGGCUUCGGCCAAUGUAUAUAGAAGGCACGAGCUGAC [ENG2/11-A1] (Eterna round: R96, puzzle: Exclusion NG 2)",–,–,–,1350 nM,636 nM,1510 nM
"GUCAGCUCGUGAGGAUAUGAACAUGAGGAUCACCCAUGUAAGAUCAAGCUGCUUCGGCAGCAAGUUCAGAAGGCACGAGCUGAU [ENG2/10-A2] (Eterna round: R96, puzzle: Exclusion NG 2)",–,–,–,251 nM,172 nM,134 nM
GUCAUACAUGAGGAUCACCCAUGUAAGGAUAUGCUAGCGGUCGGAAGAAUGACUGCUAGCAGAAGGUACAUGAU [Mat - Mod of JL D83] (puzzle: Exclusion 1),–,62.5 nM,–,–,–,–
"GUCAUCAAACAUGGGAUCAACAUGAGGAUCACCCAUGUUGUCAAGUUUUUUGCUCGUCUUAUAAUACGUUUGAUGAC [Mod-Jxb] (Eterna round: R97, puzzle: Sensor, turn-off variant 1)",–,–,–,16 nM,16.4 nM,–
"GUCAUCACACAUGGGAUCAACAUGAGGAUCACCCAUGUUGCCAAGUUGUUUGCACGUCUUAUCAUACGUUUUUCGAG [Mod-Jxh] (Eterna round: R97, puzzle: Sensor, turn-off variant 1)",–,–,–,22.9 nM,23.2 nM,–
"GUCAUGAUAGGAUAUUACGGACGGAACAUGAGGAUCACCCAUGUGUCCCAAUCCAACUGAUAAGAAGGAUCAUGGC [Eternabot (Original) Solution 34] (Eterna round: R97, puzzle: Exclusion 5)",–,–,–,18.8 nM,14.5 nM,–
"GUCCAACAUGAGGAUCACCCAUGUCAGGAUAUGCGAAUUUCAUCAAAAGAUGAAAUUUGCAGAAGGGACUGGAC [Omei Ex1 A29] (Eterna round: R97, puzzle: Exclusion 1)",–,–,–,44 nM,23.3 nM,–
GUCCUACAUGAGGAUCACCCAUGUAAGGAUAUGCUAGCGGUCGGAUGACUGACUGCUAGCAGAAGGUACAUGAU [Mat - Mod of JL D78] (puzzle: Exclusion 1),–,15.5 nM,–,–,–,–

Sequence,"apparent KD of MS2 coat protein (Eterna round: R95, input ligand: FMN 200 uM)",apparent KD of MS2 coat protein [1],"apparent KD of MS2 coat protein (Eterna round: R95, input ligand: none)",apparent KD of MS2 coat protein (input ligand: FMN 200 uM),apparent KD of MS2 coat protein (input ligand: none),apparent KD of MS2 coat protein [2]
"GUCGUGCGGCUUUGCUGUACGAGUACAUGAGGAUCACCCAUGUAGGAUAUGGUACGCUUUGCGUGCCAGAAGGGCGUGCGUUGG [salish99_ExNG3_r04_006] (Eterna round: R96, puzzle: Exclusion NG 3)",–,–,–,33.3 nM,29.9 nM,23.9 nM
"GUCGUGCGGCUUUGCUGUACGAGUACAUGAGGAUCACCCAUGUAGGAUAUGGUUCGUUUUGCGUGCCAGAAGGGCGUGCGUUGU [Excl-NG3-LRO14] (Eterna round: R96, puzzle: Exclusion NG 3)",–,–,–,–,–,15.1 nM
"GUCGUGCGGCUUUGCUGUGCGGGUGCAUGAGGAUCACCCAUGUAGGAUAUGGUACGCUUUGCGUGCCAGAAGGGCGUGCGUUGG [salish99_ExNG3_r04_009] (Eterna round: R96, puzzle: Exclusion NG 3)",–,–,–,154 nM,110 nM,114 nM
"GUCUGGCUAGGAUAUACAGUGUCCACAAGUUAGUUACCCUAACAUGAGGAUCACCCAUGUAGAAGGAGUGAGAA [Revebeed] (Eterna round: R96, puzzle: Exclusion 2)",–,–,–,355 nM,45.4 nM,34.7 nM
"GUCUUGUCAGGAUAUCUUACAUAACCAUCGUAGUUACAAUUGGAGAAGGGACAUGAGGAUCACCCAUGUUUGCG [tap-tap-tappy32] (Eterna round: R97, puzzle: Exclusion 4)",–,–,–,34.8 nM,26.6 nM,–
GUGAAACAUGAGGAUCACCCAUGUGAGGAUAUGUUUUAGUACUGCAGACAGUACAUCUAUAGAAGGCACAAUGG [Mat - Mod of JL D74] (puzzle: Exclusion 1),–,37 nM,–,–,–,–
GUGAAGGUAGGAUAUACGAUAAUAUAGGGUAGAUAUAUAACACAUGAGGAUCACCCAUGUAGAAGGACCAAGUG [Mat - Exclusion 2 - Mod of my Tesla design - D61] (puzzle: Exclusion 2),–,46 nM,–,–,–,–
"GUGAUCUAUCAUGUAAUCAACAUGAGGAUCACCCAUGUAGACAAGUUUUUUGCUCGUCUGAUAAUAAGAUAGAUCAC [Antenna 16 - Jieux - Sensor, turn-off variant 1] (Eterna round: R97, puzzle: Sensor, turn-off variant 1)",–,–,–,13.8 nM,12.3 nM,–
GUGCAAUGAGGAUAUACGUAGGUGAACAUCUGUGUGCUCCUACAUGAGGAUCACCCAUGUAGAAGGCAUGUCAC [LRO-Excl2-17] (puzzle: Exclusion 2),–,13.1 nM,–,–,–,–
"GUGCCGCGAGGAUAUACAGACGGGUCCAAAACGUGUCUCGGACUUGAGGAUCACCCAAGUAGAAGGCGUUUCAG [salish99_ex2_r4_620] (Eterna round: R97, puzzle: Exclusion 2)",–,–,–,18.6 nM,18.4 nM,–
"GUGCUAUAGGAAGGAUAUACUUCAUUAGACUAACAUGAGGAUCACCCAUGUAACCUUAUGUAUGUGUAGAAGGUCCAUAGCUUA (Eterna round: R96, puzzle: Exclusion NG 2)",–,–,–,15.5 nM,20.1 nM,13.3 nM
"GUGGGUUACAUGAGGAUCACCCAUGUAGAGUGGGAAGAGAGAUAGGAUAUGAUGUGAGAAUCAUAUCAGAAGGAUCGAGACUCG [AK ExNG3-2.3] (Eterna round: R96, puzzle: Exclusion NG 3)",–,–,–,512 nM,354 nM,158 nM
"GUGGGUUACAUGAGGAUCACCCAUGUAUAGUGGGAAGAGAUAUAGGAUAUAAUAUAAAAAUUAUAUUAGAAGGAUAGAGACUAG [AK ExNG3-1.2] (Eterna round: R96, puzzle: Exclusion NG 3)",–,–,–,491 nM,505 nM,285 nM
"GUGGGUUAUGUCAGGAUAUGGCCGUUAGGGCGACGCCAGAAGGGACAUGAGGAUCACCCAUGUCUCCGGGCAUC [BmEX4 C.10] (Eterna round: R97, puzzle: Brourd's mod of Exclusion 4)",–,–,–,15.1 nM,14.8 nM,–
GUGUACAGAGGAUAUACAAUAGGAGUUACGAAAGUAACUUCACAUGAGGAUCACCCAUGUAGAAGGCUGUACAC [Dot plot directed v8] (puzzle: Exclusion 2),–,17.7 nM,–,–,–,–
